# Reference: the DeepSol protein solubility set
# Assay: soluble on expression in E. coli; label from the status in PepcDB or PDB records
row,Sequence,soluble on expression in E. coli
1,MFFRSKKTHFLEVDKFWTPEKIVRSSEVKRINKNTEISTQESTSTSTEYQFATLEDFQNAMAEKDQNIKKLKEEVEKLIDEQEDEIILAEMQFEIFQIKAETEARRLKKLLIMRNEDFSILKTKYEDLQKQFYDLSPYPVNGYGGILIGDETPKQEKLMDQLLDKLKVLNDGDYYDIFHLLETIDKIIVTFSLYFKDPILITKKMEDNKQIIQKLEDEVDYLTKNLESLNPSQLVTSLENKDDYLLVTVEFQKRKNILFSELKKKNEEIKMLQESFNVYQKDSIEKVMEKFLELQHQNLTVFSVDDTNSISTELNNDRNVAKNDKSEGVESLMLENFNNSLKIALNSVKREISKQNVTIKTDEDMIKDMKKTIDSNENMIKMLADELSWKTKDCQVKVSALENQIFDKNDEIVKLKSHVSTESGNSPKLERNVRELTLKISSETSSQGTSRTYPHLEQEILTFHSEKISDPSEEANQEVREFPLEQTLEKLKLEQTESLVAILEQPGGLKTMRNDPQWLQVVDHFCDYVRKIEKLEENVKEEQMNTEMIMKERTREITELYYQKRVLEKKISEQFKEIQQVKSEISRVYEANIQEIQKSFDIKLKLKDQIIGELEAVDEMSSNHTELSDGWSDLDIVQNTEELQ,not soluble
2,MRWDIFCHVVDNYGDIGICWRLARQLVTEFDISVRMLVDDLGAMQRICPAIDPRLAVQNIRGVEILHWVEPFADLVPADVVIEAFGCELPPRYIAAMAAASPRFSEPEGKTDRIWINLEYLSAEQWVEGCHGLASPHPSLPLIKYFFFPGFTAATGGLLREAELFTLRDASRTDPAGLWRELGITNPAADEATVSLFCYDSAPISDLLEAWAGSISPVRCLLPEGTASASAASWAGISRLAAGDSIQRGNLTLHVIPFMSQENYDHLLWACDCNFVRGEDSFVRAQWAVRPIVWQIYPQQENVHLIKLEAFLDLYCQELIEPAADAVRAFHRSWNNNEQPDWNCFWKYRDVLQQHAMAWAERLAQIPNLASSLVNFCRNR,not soluble
3,MGSDKIHHHHHHMAANNTITFYDLALSTGATISPFVWATKYALKHKGFDLDVVPGGFTGILERTGGKTERLPAIVDDGEFVLDSWGIVEYLDAKYPDRPVLIPHESVAATLKALDNWFWNAAVGPWMFCFCQDYRDLSLPQDHEYVTHSREKMLGRKLEEVQAGREERLPKISAALEPLRAALAQHQWLGGSSPNYADYRIMGGILFTASVCKTPVLANDDPLRDWIERCLDLYGGLGRHPGLFPLFGLEQREGDPDLFNRAAGQGGIYKRNTGPESTRAETQRITEGMKK,not soluble
4,MSLKAAVLHGTNDMRFEDIEIKPCESDEVKIKVMAAGICGSDPPRVLKHWKYPVPAIPGHEFSGVIAEVGKDVKNVKVGDRVVAIPFIPCNECEYCKRGLFSLCDDHGMLGAKSFGAFAEYVNIKATNVLPIGDMDFEDAAMIEPLAVAMHGVLNIGVQVGDTVAVMGSGTMGQLVIQGLKIAGAGTIIAVDISDNKLRESKELGADIIINAKDINPVEKIKELTGGKGVDIALECAGSKITQEQCLLITKKKSKIGFLGIAYSDITLSEEAFENIFRKELELKGFWNSYSAPFPGQEWTKGINLVNEGKIKLKEMVSHRFSLEDTYKAFEMIRDRKEEFNKILILPQGVEGHHHHHH,soluble
5,MEQLNICIDIDGTITDAYYWIDLCNSYFKTSITEKDATQYYIHKILNVPLEEYNEFYEKYKYKLHSEQKLRKDVKSVITKLSQNNNIFFVTARERDLTILTYSYLRKKEIPYDSLFILGTHHKVPTARQLNCDLFIEDNYDNALELSKAGFKVLLIDTYYNRKPLNQNIIRFYNWDEVYGIVDRLFEKSEAI,not soluble
6,MKYQLNLTALRCPIPLLSAKKALKNLDKNDELMLILNLESAVENFSIFAEENSVALVEQYYASEKEFIVILKK,not soluble
7,MGEISLGEVFHLKSGKYLKADERFEDGKFPYYGAGIESTSFVNEPNTKGDTLSMIANGYSIGNIRYHTIPWFNGTGGIAMEALKPNKTYVPFFYCALKYMQKDLKERFKRDESPFISLKLAGEIKVPFVKSFALQRKAGKIIYLLDK,not soluble
8,MATVTELKAVLKDTLEKRGVLGHLKARIRAEVFNALDDDREPRPSLSHENLLINELIREYLEFNKYKYTASVLIAESGQPVVPLDRQFLIRELNAFEESKDNSIPLLYGILAHFLRGPPDGAQNVLLTESTLHPATKHLSWKPSRRPDDDHVRKDTGPRTTTEELPAAAQAVSR,soluble
9,MGSDKIHHHHHHMSICIKDQIQNMNIVIGCTVGCAYCYARNNVKRWHMIDDFAAPEFFPGKLKMMEKKRPQNFLLTGMSDLSGWKPEWRNVVFAKIRENPQHQFLFLTKRPDLLDFDTDLENAWFGVTVTRKAELWRIDALRKNVRAKHYHVTFEPLFDDPGTVDLSGINWIVVGTMTGAQSRKIHTEPEWAWSLADQAHKLGIPVFMKEDIVPIIGDENMIQEMPEEFNKVLEVQKSWKK,not soluble
10,MGSDKIHHHHHHMEELRSGSSVCRVSRRGAFVSSLRISNMEILKRSSDRYATHGGMAILIPYADIVSDGTYTWHGRRYQLPRNAGYEGNFTDSIHGLVKSAYFSIIYKDVDSILLKYALERSGYPSRLNIYVNYAVQHDSLGTVISVENTGNNEAPLVCGSHPYFLYRDFWFIKFSNSAVRLFSGGDLSLRKDESVNFLTKKIEGYYDDSFYSDGMILLVSSDRMIELDRRSMPYFEVYDGKYAERRSLAVEPMTGAPNAYNNKIGLIDLKPGETFLCGFDIRVASI,not soluble
11,MGSDKIHHHHHHMSGFLTFDFENQAVRAFEHDGQEWFVAVDVCRCLRLENSRQALTRLSDDEKRSCNLNTLTDSKGIIFNAINDSDGIRAGNPNATIVNEPGLYRLIFTSTKPEAERLKRFVFHEVLPALRHTGCFAPEPVIDWEIAREQLSLVREARLAHGKEAAAALWRELGLPMPKDETSDKERRQAQGLMKYVYDFIDECMVFDQKAEVTGKEVYQRYQQWSATNNAPYIMNSSFGRFLIRAGIVKRHVSTGSRYIGVRLKHHIQITDQSS,not soluble
12,SPEAQTEIEESILEEYAIWRKNTPFLYDLVVTKPLEWPSLTCQWLPEKREFPNSDYYLEKIILGTQTDGNAQNYLMLAQVRLPNEKAEVDGSAYNNKENGSYGGFGMGQQGKIDIVQRIKHDGDVNRARYMPQNPQIIATKTVSGEVHIFDISKHPLKPPANNVASPQLRLRSPQKEGFGLCWNPNQEGRIISAGEDRRIFLWDILGGGDKEEYVNPLNVYGGHTDVVGDVSFHAHSQYLFGSVGDDRKIMLWDTRSSDVEHPSQEVEAHKDVINCLAFNPFSEHVLITGSADTTLCLWDLRSLNQPLHVFESHPGEILQALWSPFHETLFASCGKDRQVRIWDLSRIGEEQEPEDAEDGPPELLFVHGGHTSTVQELSWNPNEPFVIASVADDNILQLWSMAQHIYEDTDDESMTTELKEEDLE,soluble
13,MTITGIIAEFNPFHNGHKYLLDQAEGLKIVAMSGNFMQRGEPAIVDKWTRTQMALENGADLVVELPFLVSVQAADFFGQGAMDILDRLGIDSLVFGTEEVRDYQKIADLYTEKGAEMEKFVENLPDSLSYPQKTQAMWKEFAGLDFSGNTPNHVLALAYAKAVAGRNIKLHPIQRQGAGYHSVNKDVDFASATALRQHQKDQDFLERFMPSVALFEQASKVIWEDYFPLLRYQILSNPDLTTIYQVNQEMAVRIKEAIKTAQSVEELVELVTTKRYTKARVRRLLTYILMQARESDLPEAIHVLGFTEKGRQHLKSLKGQVSLVSRIGKEPWDAMTQKADQIYQLGKPSIAEQNFGRVPIRIETN,soluble
14,GSHNSHMKLQEVEIRNKDLEGQLSEMEQRLEKSQSEQDAFRSNLKTLLEILDGKIFELTELRDNLAKLLECS,soluble
15,QIQLTQSPSSLSASVGDRVTITCSASSSVNSSALFWYQQKPGKAPKPWIYLTSNLASGVPSRFSGSGSGTDYTLTISSLQPEDFATYYCQQISGNPWTFGQGTKVEIKRADAAPTVSIFPPSSEQLTSGGASVVCFLNNFYPKDINVKWKIDGSERQNGVLNSWTDQDSKDSTYSMSSTLTLTKDEYERHNSYTCEATHKTSTSPIVKSFNRNEC,soluble
16,GSYNKPSETVIPESVDGLQENLDVVVSLAERHYYNCDFKMCYKLTSVVMEKDPFHASCLPVHIGTLVELNKANELFYLSHKLVDLYPSNPVSWFAVGCYYLMVGHKNEHARRYLSKATTLEKTYGPAWIAYGHSFAVESEHDQAMAAYFTAAQLMKGCHLPMLYIGLEYGLTNNSKLAERFFSQALSIAPEDPFVMHEVGVVAFQNGEWKTAEKWFLDALEKIKAIGNEVTVDKWEPLLNNLGHVCRKLKKYAEALDYHRQALVLIPQNASTYSAIGYIHSLMGNFENAVDYFHTALGLRRDDTFSVTMLGHCIEMYIGDSEAYIGADIK,soluble
17,EQHADPICNKPCKTHDDCSGAWFCQACWNSARTCGPYVG,soluble
18,MSDEVPEILLAHYLKTLKLPTFQREYQKLARLCATEGVDHVEYLLRLSEREMIERDRRKVERRIKAARFPVVKSLDSFDFAAIPKLNKMQVLELARCEWIERRENVIALGPSGTGKTHVALGLGLAACQKGLSVGFTTAAALVSEMMEARDERRLLRFQKQMAAYQLLIIDELGFVPLSKTGAELLFELISQRYERGATLITSNLPFDEWTETLGSERLTGALLDRITHHVNILEMNGDSYRLAQSRARKAGAAALEHHHHHH,soluble
19,MSLIKMQVWKKLFAKSPFKPLIRHAEVVVQTVETLEKALDSWARGDYENMKEYAKKVDDLEDIADKIKSELRDSITSKLLMPVQRTDILEYLHMQDKIADAAEDTAKWLLIKRNLDSIPNDIKDIILKMGKESIKAAKLVYEAIKQLDNVLESGFAEKEIKKEYKIIKQIEEVESKIDGLDSKLMEIVFTSELDWKDGLYILNIARTLSNISDKAKDTAERIRVLMNKEGHHHHHH,not soluble
20,MSLYYICPYFLDKNGHRVQKTMVGKVALDEQKLTPQKFSITYPLIINLQDEKVKTKVNEDIVNQVSELFKNQVLLTEKIDLSEVFGAYEIGVNRNYILSILFSIYTYMNRAAHGLTVYSSITVNTRTGKVYSFSDLFNPKMNYLGELTTIVKKYIKDNNIQLIEDYKGVTNDQEFYLTNDKLVLYYQVYAYTPYYYGLFRIPIPYTEIKNLLGPMSPINNLIEGHHHHHH,not soluble
21,MSEIINNREYRQKVLKELIRELHDGKSVEEIKPRFEELIKGISPAEISEMEQALIMEGMPVEEIQRLCDVHAAVFKGSIEEIHRPQKPEEVPGHPIHTFKLENAEIRKLVDNEIRPQLELYKNGDTAESLKKLREAFQKLWEIDKHYSRKENLLFPYLEKYGITAPPKVMWGVDDEIRADIKEINNKLSANAQNQNIPLEKAEEAVNRVIEMIFKEENILFPMALETLTEDEWAEIARASDEIGYCMITPEAEWKPARVDVVEKTQKEGVKSQENQGFVEFDAGCLTTEEINAMLNTLPIDITFVDKNDTVKYFTQGKERIFARPKTIIGRKVQNCHPPASVHIVEKIIEDLKSGKKDHEDFWIKMGEKYVYIRYFAVRNEKGEYLGTIEVTQDIAPIQKITGEKRLLSDA,soluble
22,MAHHHHHHMDATPHMHAKTIFMTHWDGLEKDSDARIIVVGATNRRFTIDDAIRRRLPLQLEVPPPDAKAREKILSILLAHDLEYNPKKDGLIRYVALKTAEYTGSDLSELCKAAALMPLREMESMKAGGASSAAPETVPPLTQQHFDKAMERVKASK,soluble
